Test results taken from the supplement of paper PMC9112550, “Optimization of the antimicrobial peptide Bac7 by deep mutational scanning” (BMC Biology, 2022).

System: Escherichia coli TOP10
Assay: shrunken log2 fold change of peptide-encoding DNA abundance (4.5 h post-induction vs induction); higher = less antimicrobial activity (less host growth inhibition)
Details: time post-induction: 4.5 h; library: site-saturation at positions 5, 18, 19, 20
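Note: peptides expressed intracellularly from a pBAD plasmid library in pooled LB shake-flask culture, induced with 0.3% L-arabinose, DNA abundance read by NGS, three biological replicates, DESeq2 with apeglm shrinkage.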

Row | Sequence | shrunken log2 fold change
1 | RRIRTRPPRLPRPRPRPSDPPRP | -0.429
2 | RRIRNRPPRLPRPRPRPCYSPRP | -0.596
3 | RRIRTRPPRLPRPRPRPMNYPRP | -0.949
4 | RRIRSRPPRLPRPRPRPLPDPRP | 0.266
5 | RRIRCRPPRLPRPRPRPHPVPRP | -0.207
6 | RRIRCRPPRLPRPRPRPGYNPRP | -0.88
7 | RRIRYRPPRLPRPRPRPGMPPRP | -0.403
8 | RRIRYRPPRLPRPRPRPFSCPRP | -0.0516
9 | RRIRWRPPRLPRPRPRPNRVPRP | -0.0395
10 | RRIRMRPPRLPRPRPRPEEAPRP | 3.94
11 | RRIRARPPRLPRPRPRPYDHPRP | -0.57
12 | RRIRSRPPRLPRPRPRPTRSPRP | 0.784
13 | RRIRSRPPRLPRPRPRPKSMPRP | -0.269
14 | RRIRCRPPRLPRPRPRPEISPRP | -0.0399
15 | RRIRPRPPRLPRPRPRPDRIPRP | -0.15
16 | RRIRVRPPRLPRPRPRPWAWPRP | -0.00558
17 | RRIRQRPPRLPRPRPRPRSVPRP | 0.235
18 | RRIRQRPPRLPRPRPRPFMIPRP | 0.0993
19 | RRIRVRPPRLPRPRPRPVGKPRP | -0.0282
20 | RRIRRRPPRLPRPRPRPGWPPRP | 0.858
21 | RRIRNRPPRLPRPRPRPEFGPRP | -0.106
22 | RRIRRRPPRLPRPRPRPFNFPRP | -0.473
23 | RRIRWRPPRLPRPRPRPHVFPRP | -0.154
24 | RRIRQRPPRLPRPRPRPANFPRP | 0.0982
25 | RRIRTRPPRLPRPRPRPRESPRP | 0.207

Row | Sequence | shrunken log2 fold change
26 | RRIRARPPRLPRPRPRPQHEPRP | 0.0966
27 | RRIRRRPPRLPRPRPRPGGWPRP | 0.824
28 | RRIRYRPPRLPRPRPRPFNRPRP | -0.0175
29 | RRIRLRPPRLPRPRPRPYLAPRP | -0.756
30 | RRIRTRPPRLPRPRPRPWTSPRP | 0.0106
31 | RRIRVRPPRLPRPRPRPIWYPRP | -0.146
32 | RRIRSRPPRLPRPRPRPAWEPRP | 0.499
33 | RRIRRRPPRLPRPRPRPFFAPRP | 0.98
34 | RRIRKRPPRLPRPRPRPRGFPRP | 0.18
35 | RRIRGRPPRLPRPRPRPWCFPRP | 0.212
36 | RRIRHRPPRLPRPRPRPSSEPRP | -0.102
37 | RRIRLRPPRLPRPRPRPHNLPRP | -0.11
38 | RRIRKRPPRLPRPRPRPTFMPRP | 0.189
39 | RRIRSRPPRLPRPRPRPFNSPRP | -0.116
40 | RRIRNRPPRLPRPRPRPVVLPRP | -0.179
41 | RRIRNRPPRLPRPRPRPAKGPRP | -0.051
42 | RRIRYRPPRLPRPRPRPGWWPRP | 0.316
43 | RRIRIRPPRLPRPRPRPNQPPRP | -0.0903
44 | RRIRMRPPRLPRPRPRPLPKPRP | 1.11
45 | RRIRPRPPRLPRPRPRPVSMPRP | 1.41
46 | RRIRDRPPRLPRPRPRPHMTPRP | -0.0927
47 | RRIRGRPPRLPRPRPRPRDLPRP | 0.473
48 | RRIRGRPPRLPRPRPRPALDPRP | 1.4
49 | RRIRMRPPRLPRPRPRPQRLPRP | 0.294
50 | RRIRKRPPRLPRPRPRPVNEPRP | -0.00608

Row | Sequence | shrunken log2 fold change
51 | RRIRMRPPRLPRPRPRPDSEPRP | 1.82
52 | RRIRFRPPRLPRPRPRPNWWPRP | -0.0248
53 | RRIRIRPPRLPRPRPRPETLPRP | -0.102
54 | RRIRDRPPRLPRPRPRPYLSPRP | -0.102
55 | RRIRARPPRLPRPRPRPWPYPRP | -0.144
56 | RRIRMRPPRLPRPRPRPRKCPRP | 0.0129
57 | RRIRVRPPRLPRPRPRPCLNPRP | -0.193
58 | RRIRHRPPRLPRPRPRPKIEPRP | 0.0371
59 | RRIRERPPRLPRPRPRPECFPRP | 0.435
60 | RRIRTRPPRLPRPRPRPVDTPRP | 0.0439
61 | RRIRSRPPRLPRPRPRPNYFPRP | -0.828
62 | RRIRFRPPRLPRPRPRPVDAPRP | 0.183
63 | RRIRCRPPRLPRPRPRPNCLPRP | -0.19
64 | RRIRLRPPRLPRPRPRPSHQPRP | -0.231
65 | RRIRDRPPRLPRPRPRPCTRPRP | 0.0736
66 | RRIRPRPPRLPRPRPRPAREPRP | 0.68
67 | RRIRCRPPRLPRPRPRPNMIPRP | -0.829
68 | RRIRCRPPRLPRPRPRPWVTPRP | -0.652
69 | RRIRIRPPRLPRPRPRPWCTPRP | -0.757
70 | RRIRRRPPRLPRPRPRPKGKPRP | 0.195
71 | RRIRARPPRLPRPRPRPWDPPRP | 0.496
72 | RRIRLRPPRLPRPRPRPQIGPRP | 0.0441
73 | RRIRPRPPRLPRPRPRPMHDPRP | -0.0561
74 | RRIRTRPPRLPRPRPRPQWNPRP | -0.832
75 | RRIRPRPPRLPRPRPRPLTAPRP | 0.212

Row | Sequence | shrunken log2 fold change
76 | RRIRHRPPRLPRPRPRPLWVPRP | -0.142
77 | RRIRTRPPRLPRPRPRPKCRPRP | 0.0762
78 | RRIRMRPPRLPRPRPRPQVRPRP | -0.0122
79 | RRIRERPPRLPRPRPRPAMGPRP | -0.0135
80 | RRIRPRPPRLPRPRPRPLHRPRP | -0.284
81 | RRIRKRPPRLPRPRPRPWAVPRP | 0.192
82 | RRIRYRPPRLPRPRPRPCPGPRP | -0.0926
83 | RRIRFRPPRLPRPRPRPDKVPRP | -0.281
84 | RRIRNRPPRLPRPRPRPDVLPRP | -0.0481
85 | RRIRVRPPRLPRPRPRPNVAPRP | 0.177
86 | RRIRTRPPRLPRPRPRPCYCPRP | -0.76
87 | RRIRMRPPRLPRPRPRPHCEPRP | -0.0828
88 | RRIRFRPPRLPRPRPRPMRWPRP | 0.264
89 | RRIRNRPPRLPRPRPRPQPHPRP | -0.0382
90 | RRIRDRPPRLPRPRPRPNFCPRP | -0.00997
91 | RRIRIRPPRLPRPRPRPQLTPRP | -0.28
92 | RRIRYRPPRLPRPRPRPIFTPRP | -0.212
93 | RRIRVRPPRLPRPRPRPIAPPRP | 0.328
94 | RRIRGRPPRLPRPRPRPACMPRP | 0.671
95 | RRIRTRPPRLPRPRPRPHGEPRP | 0.16
96 | RRIRVRPPRLPRPRPRPTQVPRP | 0.103
97 | RRIRHRPPRLPRPRPRPNNEPRP | -0.724
98 | RRIRQRPPRLPRPRPRPLMLPRP | -0.213
99 | RRIRHRPPRLPRPRPRPFKVPRP | -0.0904
100 | RRIRGRPPRLPRPRPRPMVMPRP | 0.342

Row | Sequence | shrunken log2 fold change
101 | RRIRNRPPRLPRPRPRPTCNPRP | -0.288
102 | RRIRWRPPRLPRPRPRPINYPRP | -0.387
103 | RRIRKRPPRLPRPRPRPEDGPRP | 1.9
104 | RRIRFRPPRLPRPRPRPNCHPRP | -0.313
105 | RRIRERPPRLPRPRPRPLSPPRP | -0.17
106 | RRIRGRPPRLPRPRPRPISWPRP | -0.0765
107 | RRIRWRPPRLPRPRPRPVKNPRP | 0.238
108 | RRIRNRPPRLPRPRPRPDWVPRP | 0.134
109 | RRIRIRPPRLPRPRPRPRQFPRP | -0.112
110 | RRIRDRPPRLPRPRPRPANMPRP | -0.229
111 | RRIRIRPPRLPRPRPRPYLMPRP | -0.143
112 | RRIRRRPPRLPRPRPRPYTQPRP | -0.141
113 | RRIRVRPPRLPRPRPRPVVMPRP | -0.271
114 | RRIRPRPPRLPRPRPRPIIRPRP | -0.168
115 | RRIRDRPPRLPRPRPRPAVLPRP | -0.014
116 | RRIRNRPPRLPRPRPRPMTHPRP | -0.405
117 | RRIRARPPRLPRPRPRPCGPPRP | 0.0702
118 | RRIRWRPPRLPRPRPRPCVTPRP | 0.024
119 | RRIRRRPPRLPRPRPRPLFLPRP | -0.173
120 | RRIRKRPPRLPRPRPRPPMYPRP | -0.0675
121 | RRIRRRPPRLPRPRPRPQYAPRP | 0.0794
122 | RRIRTRPPRLPRPRPRPNQVPRP | 0.00376
123 | RRIRHRPPRLPRPRPRPFWRPRP | -0.0343
124 | RRIRPRPPRLPRPRPRPSQIPRP | -0.112
125 | RRIRVRPPRLPRPRPRPGPQPRP | 0.245
